Measurements as given in patent US20210024625A1 (published 2021).

T1: PfRH5 from Plasmodium falciparum strain 3D7 (Plasmodium falciparum, UniProt Q8IFM5 25-526)
T1 sequence: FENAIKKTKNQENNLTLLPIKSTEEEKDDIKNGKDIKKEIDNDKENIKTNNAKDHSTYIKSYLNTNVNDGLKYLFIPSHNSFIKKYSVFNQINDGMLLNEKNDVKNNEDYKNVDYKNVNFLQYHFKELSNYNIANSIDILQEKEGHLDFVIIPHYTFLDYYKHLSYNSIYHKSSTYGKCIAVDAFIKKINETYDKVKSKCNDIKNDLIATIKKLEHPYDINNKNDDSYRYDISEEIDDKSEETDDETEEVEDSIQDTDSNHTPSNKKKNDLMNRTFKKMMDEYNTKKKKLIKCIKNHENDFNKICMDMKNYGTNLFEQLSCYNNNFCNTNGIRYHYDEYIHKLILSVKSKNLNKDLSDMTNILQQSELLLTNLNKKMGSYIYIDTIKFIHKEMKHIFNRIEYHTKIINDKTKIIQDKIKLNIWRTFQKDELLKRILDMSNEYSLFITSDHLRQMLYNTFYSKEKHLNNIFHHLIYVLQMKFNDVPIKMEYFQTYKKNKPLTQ

B1: H1H29187P2 (antibody, V domains shown)
VH: QVQLVESGGGVVQPGRFLRLSCAASGFTFSNSGMHWVRQAPGKGLEWVAGIWHDGSYKYYVDSVKGRFTISRDNSKNTLFLQMNSLRAEDTAVYYCARDDYYASGTSVDVWGQGTTVTVSS
VL: not shown
B2: H1H29143P (antibody, V domains shown)
VH: EVQLVESGGGLVQPGGSLRLSCAASGFTFNNYAMSWVRQAPGRGLEWVSAISGSGDSTYYSDSVKGRFTISRDNSKNTLYLQMNSLRAEDTAVYYCAKDQGLYYYGSGSFDYWGQGTLVTVSS
VL: not shown
B3: H1H29104P (antibody, V domains shown)
VH: EVQLVESGGGLVQPGRSLRLSCAASGFRFDDYAMHWVRQAPGKGLEWVSGINWNSGGKGYADSVQGRFTISRDNAKNSLYLQMNSLRTEDTALYYCAKDRGIAARLLSRDAFDMWGQGTMVTVSS
VL: DIQLTQSPSFLSASVGDRVTITCWASQDVSSYLAWYQQKPGKSPKLLIFAASTLQGGIPSRFSGSGSGTEFTLTISSLRPEDFATYYCQHLNTYPYTFGQGTKLEIKR
B4: H1H29127P (antibody, V domains shown)
VH: QVQLVESGGGVVQPGRSLRLSCAASGFTFSSYGMHWVRQAPGKGLEWVAAIWYDGSNKYYADSVKGRFTISRDNSKNTLYLQMNSLRAEDTAVYFCARGEHYYGSGPFDPWGQGTLVTVSS
VL: DIQMTQSPSSLSASVGDRVTITCRASQSISNYLNWYQQKPGKAPKLLIFAASSLQSGVPSRFSGSGSGTDFTLTISSLQPEDFATYYCQQSYSSPLTFGGGTKVEIKR
B5: H1H29171P2 (antibody, V domains shown)
VH: QVQLVESGGGVVQPGRSLRLSCAASGFTFSSYGMHWVRQAPGKGLEWVAVISYDGSNKYYADSVKGRFTISRDNSKNTLYLQMNSLRAEDTAVYYCAKDDWNYDAFDIWGQGTMVTVSS
VL: not shown
B6: H1H29179P2 (antibody, V domains shown)
VH: QVQLQESGPGLVKPSQTLSLTCTVSGGSISSSGYYWSWIRQHPGRGLEWIGYIYYSGSTYYNPSLKSRVTISVDTSKNQFSLKLNSVTAADTAVYYCARVDYGSGSSFDYWGQGTLVTVSS
VL: not shown
B7: H1H29183P2 (antibody, V domains shown)
VH: QVQLVQSGPEVKKPGASVKVSCKASGYTFTSYGISWVRQAPGQGLEWLGWISGFNGRTDYTEKLQDRITMTTDRSSSTAYMELRSLRYDDTAVYYCARDGLEKLGDYWGQGTLVTVSS
VL: not shown
B8: H1H29094P (antibody, V domains shown)
VH: not shown
VL: DIQMTQSPSSLSASVGDRVTITCQASQDINRDLNWYQQKSGKGPKLLIYDASNLETGVPSRFSGNRFGTDFTFTISRLQPEDIATYFCQQYKNLPYTFGQGTKLEIKR
B9: H1H29106P (antibody, V domains shown)
VH: QVQLVESGGGVVQSGRSLRLSCAASSFTFSSYGMHWVRQSPGKGLEWVAVISYDGSNKYYGDFVRGRFTISRDNSKNTLYLQMNSLRAEDTAMYYCAREVRRYYYYGMDVWGQGTTVTVSS
VL: not shown
B10: H1H29109P (antibody, V domains shown)
VH: EVQLVESGGGLVQPGRSLRLSCAVSGFTFDDYAMHWVRQAPGKGLEWVSGISWNSGDIDYADSVKGRFTISRDNAKNSLYLQMNSLRAEDTALYYCAKDTLSGTGTTWYYFDYWGQGTLVTVSS
VL: DIQLTQSPSFLSASVGDRVTITCWASQGISSYLIWYQQKPGKAPKLLIYAASTLQSGVPSRFSGSGSGTEFTLTISSLQPEDFATYYCQQVNSYPLTFGGGTKVEIKR

Target: T2, PfRH5 from Plasmodium falciparum strain 7G8 (Plasmodium falciparum)
Test: cell-based or functional assay

With B1 the “Max growth inhibition (%), Chloroquine Phosphate N/A” value was 49.3%.

Target: T1, PfRH5 from Plasmodium falciparum strain …
Test: cell-based or functional assay

With B1 the “Max growth inhibition (%), Chloroquine Phosphate N/A” value was 47.6%.

Target: T3, PfRH5 from Plasmodium falciparum strain FCR-1/FVO (Plasmodium falciparum)
Test: cell-based or functional assay

For B1, the “Percent Maximum Growth Inhibition, mAb (6.67 µM) + AHIS (10%)” value was 89.4%.

For B1, the “Percent Maximum Growth Inhibition, mAb (6.67 µM) + ANS (10%)” value was 80.1%.

In the case of B1, the “Percent Maximum Growth Inhibition, mAb (6.67 µM) + HHIS (10%)” value is reported as 85.4%.

B1 was tested, and the “Percent Maximum Growth Inhibition, mAb (6.67 µM) + HNS (10%)” value was 85.9%.

For B1, the “Percent Maximum Growth Inhibition, mAb (6.67 µM) + No serum” value was 85.3%.

Target: T4, PfRH5 from Plasmodium falciparum strain Dd2 (Plasmodium falciparum)
Test: cell-based or functional assay

Compared with B2, B3 is lower in “Maximum growth inhibition (%)” value: 56% for the first, 54.1% for the second.

For B4, the “Maximum growth inhibition (%)” value was 56.9%.

Target: T2, PfRH5 from Plasmodium falciparum strain …
Test: cell-based or functional assay
Remark: another data set of the same source

Going from B2 to B5, the “Max growth inhibition (%)” value falls from 61.9% to 17%.

First: B6
Second: B3
The “Max growth inhibition (%)” value of the first is lower: 34.1% for the first, 35.2% for the second.

First: B7
Second: B8
The “Max growth inhibition (%)” value of the first is lower: 17.8% for the first, 29.9% for the second.

Compared with B4, B9 is lower in “Max growth inhibition (%)” value: 61.2% for the first, 55.5% for the second.

For B10, the “Max growth inhibition (%)” value was 39%.

Target: PfRH5 from Plasmodium falciparum strain RF7 (Plasmodium falciparum)
Test: cell-based or functional assay

Going from B1 to B5, the “Max growth inhibition (%)” value falls from 32.7% to -12.5%.

Compared with B6, B3 is higher in “Max growth inhibition (%)” value: -2.99% for the first, 23.6% for the second.

First: B7
Second: B8
The “Max growth inhibition (%)” value of the first is lower: -6.27% for the first, 15.2% for the second.

Going from B4 to B9, the “Max growth inhibition (%)” value rises from 25.7% to 27.4%.

For B10, the “Max growth inhibition (%)” value was 8.24%.

Target: T3, PfRH5 from Plasmodium falciparum strain …
Test: cell-based or functional assay
Remark: another data set of the same source

Compared with B1, B2 is lower in “Max growth inhibition (%)” value: 72.2% for the first, 67.2% for the second.

Going from B5 to B6, the “Max growth inhibition (%)” value rises from 11.7% to 49%.

Compared with B3, B7 is lower in “Max growth inhibition (%)” value: 67.4% for the first, 16.1% for the second.

Going from B8 to B4, the “Max growth inhibition (%)” value rises from 51.2% to 61.1%.

First: B9
Second: B10
The “Max growth inhibition (%)” value of the first is lower: 54.3% for the first, 56.7% for the second.

Target: PfRH5 from Plasmodium falciparum strain HB3 (Plasmodium falciparum)
Test: cell-based or functional assay

First: B1
Second: B2
The “Max growth inhibition (%)” value of the first is higher: 63.9% for the first, 60.9% for the second.

Going from B5 to B6, the “Max growth inhibition (%)” value rises from 0.52% to 40.9%.

Going from B3 to B7, the “Max growth inhibition (%)” value falls from 39.8% to 4.92%.

Compared with B8, B4 is higher in “Max growth inhibition (%)” value: 45.4% for the first, 59.4% for the second.

First: B9
Second: B10
The “Max growth inhibition (%)” value of the first is higher: 48.4% for the first, 32.2% for the second.

Target: PfRH5 from Plasmodium falciparum strain D10 (Plasmodium falciparum)
Test: cell-based or functional assay

Compared with B1, B2 is lower in “Max growth inhibition (%)” value: 79.6% for the first, 79.4% for the second.

Compared with B5, B6 is higher in “Max growth inhibition (%)” value: 10.6% for the first, 62.5% for the second.

Going from B3 to B7, the “Max growth inhibition (%)” value falls from 55.7% to 6.79%.

Compared with B8, B4 is higher in “Max growth inhibition (%)” value: 35.9% for the first, 74.4% for the second.

Compared with B9, B10 is lower in “Max growth inhibition (%)” value: 74.9% for the first, 44.8% for the second.

Target: T4, PfRH5 from Plasmodium falciparum strain …
Test: cell-based or functional assay
Remark: another data set of the same source

First: B1
Second: B2
The “Max growth inhibition (%)” value of the first is higher: 66% for the first, 62.7% for the second.

Going from B5 to B6, the “Max growth inhibition (%)” value rises from 7.71% to 13.5%.

Going from B3 to B7, the “Max growth inhibition (%)” value falls from 61.3% to 0.68%.

Compared with B8, B4 is higher in “Max growth inhibition (%)” value: 41.6% for the first, 64.7% for the second.

First: B9
Second: B10
The “Max growth inhibition (%)” value of the first is higher: 54% for the first, 42% for the second.

Target: T1, PfRH5 from Plasmodium falciparum strain …
Test: cell-based or functional assay
Remark: another data set of the same source

Going from B1 to B2, the “Max growth inhibition (%)” value falls from 70.7% to 60.3%.

Going from B5 to B6, the “Max growth inhibition (%)” value rises from 4.04% to 24.2%.

Going from B3 to B7, the “Max growth inhibition (%)” value falls from 34.4% to 5.68%.

Compared with B8, B4 is higher in “Max growth inhibition (%)” value: 14.4% for the first, 63.9% for the second.

Compared with B9, B10 is lower in “Max growth inhibition (%)” value: 58% for the first, 32.2% for the second.

Target: PfRH5 from Plasmodium falciparum strain Cam3.II (Plasmodium falciparum)
Test: cell-based or functional assay

First: B1
Second: B2
The “Max growth inhibition (%)” value of the first is lower: 49.2% for the first, 53.2% for the second.

Compared with B5, B6 is higher in “Max growth inhibition (%)” value: 5.45% for the first, 33.4% for the second.

Going from B3 to B7, the “Max growth inhibition (%)” value falls from 50% to 8.66%.

Compared with B8, B4 is higher in “Max growth inhibition (%)” value: 26.2% for the first, 47% for the second.

Compared with B9, B10 is lower in “Max growth inhibition (%)” value: 51.7% for the first, 35.9% for the second.

Target: PfRH5 from Plasmodium falciparum strain W2-mef (Plasmodium falciparum)
Test: cell-based or functional assay

Going from B1 to B2, the “Max growth inhibition (%)” value falls from 67.3% to 58.3%.

First: B5
Second: B6
The “Max growth inhibition (%)” value of the first is lower: 0.74% for the first, 22.9% for the second.

Going from B3 to B7, the “Max growth inhibition (%)” value falls from 47.4% to -0.55%.

First: B8
Second: B4
The “Max growth inhibition (%)” value of the first is lower: 34.9% for the first, 53.6% for the second.

Compared with B9, B10 is lower in “Max growth inhibition (%)” value: 48.9% for the first, 37.9% for the second.
